Experimental data reported in paper PMC7610992 (Journal of molecular biology, 2006).

T1: RNA helicase B (RhlB), full-length helicase (E. coli, UniProt P0A8J8 1-421)
T1 sequence (looked up): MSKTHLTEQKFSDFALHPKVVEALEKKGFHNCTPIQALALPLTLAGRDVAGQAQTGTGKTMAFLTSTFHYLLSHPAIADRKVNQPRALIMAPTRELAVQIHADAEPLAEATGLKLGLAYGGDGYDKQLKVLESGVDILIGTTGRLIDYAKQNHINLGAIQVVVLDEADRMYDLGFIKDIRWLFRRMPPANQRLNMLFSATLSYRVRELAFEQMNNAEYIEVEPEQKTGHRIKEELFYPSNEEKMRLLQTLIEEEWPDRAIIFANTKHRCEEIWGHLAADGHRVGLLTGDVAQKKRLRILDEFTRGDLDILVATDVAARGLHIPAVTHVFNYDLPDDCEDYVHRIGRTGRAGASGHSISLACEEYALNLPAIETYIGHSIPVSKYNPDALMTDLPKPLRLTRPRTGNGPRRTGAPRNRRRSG

B1: RNase E (628-843) (domain or fragment, E. coli, UniProt P21513 628-843, looked up)
chain: ERTEGSDNREENRRNRRQAQQQTAETRESRQQAEVTEKARTADEQQAPRRERSRRRNDDKRQAQQEAKALNVEEQSVQETEQEERVRPVQPRRKQRQLNQKVRYEQSVAEEAVVAPVVEETVAAEPIVQEAPAPRTELVKVPLPVVAQTAPEQQEENNADNRDNGGMPRRSRRSPRHLRVSGQRRRRYRDERYPTQSPMPLTVACASPELASGKVW
B2: RhlB-CTD, carboxy-terminal domain of RhlB helicase (domain or fragment, E. coli)
chain: MRIKEELFYPSNEEKMRLLQTLIEEEWPDRAIIFANTKHRCEEIWGHLAADGHRVGLLTGDVAQKKRLRILDEFTRGDLDILVATDVAARGLHIPAVTHVFNYDLPDDCEDYVHRIGRTGRAGASGHSISLACEEYALNLPAIETYIGHSIPVSKYNPDALMTDLPKPLRLTRPRTGNGPRRTGAPRNRRRSG

Legend:
[1] = target: T1, RNA helicase B (RhlB), full-length …; test: limited proteolysis with native gel and mass spectrometry
RNase E (628-843) = target: B1; test: SEC + cross-linking + native MS

binding result [1] | stoichiometry N (RNase E (628-843)) | Binder
binds |  | B1
 | 1 RhlB-CTD per RNase E (628-843) | B2
